According to patent US20230287125A1 (LEPU BIOPHARMA, published 2023):
Changes are numbered by the printed parent chain. Blank lines part the entries; values can stand above or below the molecule they belong to.

What was measured:
[1] = biological target: mouse TGF-β protein (mouse); experiment: ELISA, coated mouse TGF-β
[2] = biological target: human TGF-β protein (human) (UniProt P01137); experiment: ELISA, coated human TGF-β
rat TGF-β protein (rat) = experiment: ELISA, coated rat TGF-β
[3] = biological target: T1, human PD-L1-his tag protein (human, UniProt Q9NZQ7 19-238); experiment: ELISA, coated human PD-L1-His
T1 construct: also called human PD-L1-His protein; recombinant PD-L1 protein; not shown: his tag

cynomolgus PD-L1 protein = cynomolgus PD-L1 protein (cynomolgus, UniProt G7PSE7 19-238); experiment: ELISA, coated cynomolgus PD-L1
Description: (§1) ELISA testing was carried out to evaluate the binding of chimeric antibodies to human, mouse, rat, and cynomolgus PD-L1, respectively.
(§2) Briefly, microtiter plates were coated with human, mouse, rat and cynomolgus PD-L1 proteins at 0.5 μg/ml in PBS, 100 μl/well at 4° C. overnight, then blocked with 150 μl/well of 1% BSA. Three-fold dilutions of chimeric antibodies starting from 10 μg/ml were added to each well and incubated for 1 hour at 37° C. The plates were washed with PBS/Tween and then incubate with mouse-anti-human IgG Fab antibody conjugated with Horse Radish Peroxidase (HRP) for 30 mins at 37° C. After washing, the plates were developed with TMB substrate and analyzed by spectrophotometer at OD 450 nm.

[4] = biological target: human TGF-β protein (human) (UniProt P01137); experiment: cell-based or functional assay
[5] = biological target: PD-L1 on PD-L1 target cells (Homo sapiens (Human)) (UniProt Q9NZQ7); experiment: cell-based or functional assay
[6] = biological target: cynomolgus TGF-β protein (cynomolgus); experiment: ELISA, coated cynomolgus TGF-β
mouse PD-L1 protein = mouse PD-L1 protein (mouse, UniProt Q9EP73 19-239); experiment: ELISA, coated mouse PD-L1
Description: as §1, §2

rat PD-L1 protein = rat PD-L1 protein (rat, UniProt D4AE25 19-239); experiment: ELISA, coated rat PD-L1
Description: as §1, §2

[7] = biological target: T1, human PD-L1-his tag protein; experiment: SPR (Biacore), affinity ranking, PDL1-His
[8] = biological target: T1, human PD-L1-his tag protein; experiment: SPR (Biacore T200), mAb captured on Protein A chip, PD-L1-his injected
Description: The binding of the humanized antibodies to recombinant PD-L1 protein (human PD-L1-his tag) was tested by Biacore using a capture method. […] A serial dilution of human PD-L1-his tag protein was injected over captured antibody for 2 mins at a flow rate of 30 μl/min. The antigen was allowed to dissociate for 1500 s. All the experiment were carried out on a Biacore T200.

[9] = biological target: T2, human PD-L1 over-expressed on CHOK1 cells (human, UniProt Q9NZQ7 19-290); experiment: flow cytometry (MFI) on PDL1-CHOK1 cells; upper right panel
T2 construct: whole, on cells; also called PDL1-CHOK1 cells
Description: To evaluate the antigen binding property, the humanized antibodies were analyzed for their binding to PD-L1 overexpressed on mammalian cells by FACS. Briefly, PDL1-CHOK1 cells were firstly incubated with 3-fold serious diluted humanized antibodies starting at 15 μg/ml at 4° C. for 40 mins. After washed by PBS, the Alexa Fluor® 647 AffiniPure Goat Anti-Human IgG (H+L) antibody was added to each well and incubated at 4° C. for 30 mins. The MFI of Alexa Fluor® 647 was evaluated by FACSCanto.

human PD-L1-Fc protein [10] = biological target: T3, human PD-L1-Fc protein (human, UniProt Q9NZQ7 19-238); experiment: ELISA, antibody titrated on coated human PD-L1-Fc, OD 450nm; upper right panel
T3 construct: coating antigen of the ELISAs; also called rhPD-L1-Fc; not shown: Fc

human PD-L1-Fc protein [11] = biological target: T3, human PD-L1-Fc protein; experiment: receptor blocking ELISA: coated human PD-L1-Fc, blocked ligand biotin-labeled human CD80-Fc (Bio-CD80), OD 450nm; middle right panel
Description: (§3) Briefly, microtiter plates were coated with human PD-L1-Fc protein at 0.5 μg/ml in PBS, 100 μl/well at 4° C. overnight, then blocked with 150 μl/well of 1% BSA at 37° C. for 2 hours. […] The plates were washed with PBS/Tween and then incubated with Streptavidin-HRP for 10 mins at 37° C. After washing, the plates were developed with TMB substrate and analyzed by spectrophotometer at OD 450 nm.

human PD-L1-Fc protein [12] = biological target: T3, human PD-L1-Fc protein; experiment: receptor blocking ELISA: coated human PD-L1-Fc, blocked ligand biotin-labeled human PD-1-Fc (Bio-PD1), OD 450nm; middle right panel
Description: as §3

human PD-L1-Fc protein [13] = biological target: T3, human PD-L1-Fc protein; experiment: ELISA, antibody titrated on coated human PD-L1-Fc, OD 450nm; lower right panel
Description: as §2, with “To evaluate antigen binding activity, the humanized antibodies were subjected to ELISA test. Briefly,” for “Briefly,”, “with human PD-L1-Fc protein” for “with human, mouse, rat and cynomolgus PD-L1 proteins”, “with 200” for “with 150”, “of humanized” for “of chimeric”, “then incubated” for “then incubate”, “for 1 hour” for “for 30 mins”

human PD-L1-Fc protein [14] = biological target: T3, human PD-L1-Fc protein; experiment: receptor blocking ELISA: coated human PD-L1-Fc, blocked ligand biotin-labeled human PD-1-Fc (Bio-PD1), OD 450nm [cont'd]
Description: as §3

human PD-L1-Fc protein [15] = biological target: T3, human PD-L1-Fc protein; experiment: receptor blocking ELISA: coated human PD-L1-Fc, blocked ligand biotin-labeled human CD80-Fc (Bio-CD80), OD 450nm [cont'd]
Description: as §3

T1 sequence (Q9NZQ7 19-238 limits assumed): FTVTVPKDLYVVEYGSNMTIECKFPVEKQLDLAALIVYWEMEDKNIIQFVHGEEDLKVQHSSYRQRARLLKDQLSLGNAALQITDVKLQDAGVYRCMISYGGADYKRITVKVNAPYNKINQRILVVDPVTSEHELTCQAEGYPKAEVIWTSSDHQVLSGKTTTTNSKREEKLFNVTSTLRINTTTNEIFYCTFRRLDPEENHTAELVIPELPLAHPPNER
T3 sequence (Q9NZQ7 19-238 limits assumed): as above
T2 sequence (Q9NZQ7 19-290): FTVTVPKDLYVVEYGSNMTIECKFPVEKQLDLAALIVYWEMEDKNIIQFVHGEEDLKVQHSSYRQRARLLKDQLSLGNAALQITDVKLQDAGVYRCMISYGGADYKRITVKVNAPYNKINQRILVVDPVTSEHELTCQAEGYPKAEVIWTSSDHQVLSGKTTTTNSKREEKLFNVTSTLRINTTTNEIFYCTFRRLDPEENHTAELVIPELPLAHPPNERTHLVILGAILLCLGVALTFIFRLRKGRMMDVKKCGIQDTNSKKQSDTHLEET
human TGF-β protein (human), sequence (P01137 279-390 limits assumed): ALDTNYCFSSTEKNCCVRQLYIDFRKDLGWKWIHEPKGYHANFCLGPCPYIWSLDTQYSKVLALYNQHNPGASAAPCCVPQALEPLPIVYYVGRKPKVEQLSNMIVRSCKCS
cynomolgus PD-L1 protein, sequence (G7PSE7 entry or part of it): as the sequence (Q9NZQ7 19-238 limits assumed) above, with A33T, A34S, S62N, R68Q, Q82R, F173L, T185A, T192I, H215L counted along it
rat TGF-β protein (rat), sequence (P17246 279-390): as the sequence (P01137 279-390 limits assumed) above, with A75S counted along it
mouse TGF-β protein (mouse), sequence (P04202 279-390): as the sequence (P01137 279-390 limits assumed) above, with A75S counted along it
rat PD-L1 protein, sequence (D4AE25 entry or part of it limits assumed): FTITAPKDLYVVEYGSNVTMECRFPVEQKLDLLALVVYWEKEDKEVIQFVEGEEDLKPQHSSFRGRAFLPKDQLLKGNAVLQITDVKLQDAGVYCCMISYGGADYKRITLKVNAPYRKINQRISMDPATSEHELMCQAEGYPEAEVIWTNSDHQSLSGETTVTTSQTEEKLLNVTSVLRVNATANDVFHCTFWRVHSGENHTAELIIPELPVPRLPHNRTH
PD-L1 on PD-L1 target cells (Homo sapiens (Human)), sequence (Q9NZQ7 19-290 limits assumed): as the sequence (Q9NZQ7 19-290) above
cynomolgus TGF-β protein (cynomolgus), sequence (P09533 279-390): as the sequence (P01137 279-390 limits assumed) above
mouse PD-L1 protein, sequence (Q9EP73 19-239 limits assumed): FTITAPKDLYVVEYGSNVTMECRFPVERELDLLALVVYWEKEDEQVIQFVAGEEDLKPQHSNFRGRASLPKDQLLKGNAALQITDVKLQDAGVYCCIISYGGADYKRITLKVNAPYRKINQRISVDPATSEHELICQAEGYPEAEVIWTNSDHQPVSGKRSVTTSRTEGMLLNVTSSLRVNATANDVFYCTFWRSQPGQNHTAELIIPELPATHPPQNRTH

EC50 [1]: 0.0462 µg/mL
EC50 [2]: 0.0434 µg/mL
EC50 (rat TGF-β protein (rat)): 0.124 µg/mL
EC50 [3]: 0.0237 µg/mL
EC50 (cynomolgus PD-L1 protein): 0.0256 µg/mL
IC50, TGF-β SBE luciferase reporter assay in 293 cells [4]: 0.0669 nM
EC50, NFAT-RE-mediated luminescence, PD1 effector cells co-cultured with PD-L1 target cells [5]: 0.85 nM
EC50 [6]: 0.0397 µg/mL
EC50 (mouse PD-L1 protein): 0.0106 µg/mL
EC50 (rat PD-L1 protein): 0.0143 µg/mL
Molecule: M7824 (bintrafusp alfa)

Kd [7]: 0.0353 nM
koff [7]: 9.49e-05 s⁻¹
kon [7]: 2.69e+06 M⁻¹ s⁻¹
Kd [8]: 0.0328 nM
koff [8]: 7.25e-05 s⁻¹
kon [8]: 2.21e+06 M⁻¹ s⁻¹
EC50 [9]: 0.11 nM
EC50 (human PD-L1-Fc protein [10]): 0.0124 µg/mL
IC50 (human PD-L1-Fc protein [11]): 0.382 µg/mL
IC50 (human PD-L1-Fc protein [12]): 0.14 µg/mL
B1: Hu67F3G7-7 (antibody, V domains shown)
VH: EVQLVQSGAEVKKPGASVKVSCKASGYTFTDFWVSWVRQAPGQGLEWMGEIYPNSGVSRYNEKFKGRVTMTVDKSISTAYMELSRLRSDDTAVYYCTKYFGYTYWFGYWGQGTLVTVSS
VL: DTVLTQSPSSLSASVGDRVTITCRASKSVSTYMHWYQQKPGKAPKLLIYSASHLESGVPSRFSGSGSGTDFTLTISSLQPEDFATYYCQQSNELPVTFGGGTKVEIK
notes: humanized

Kd [7]: 0.0435 nM
koff [7]: 7.26e-05 s⁻¹
kon [7]: 1.67e+06 M⁻¹ s⁻¹
Kd [8]: 0.0326 nM
koff [8]: 5.79e-05 s⁻¹
kon [8]: 1.78e+06 M⁻¹ s⁻¹
EC50 (human PD-L1-Fc protein [13]): 0.0078 µg/mL
EC50 [9]: 0.118 nM
IC50 (human PD-L1-Fc protein [14]): 0.108 µg/mL
IC50 (human PD-L1-Fc protein [15]): 0.126 µg/mL
B2: Hu67F3G7-22 (antibody, V domains shown)
VH: B1 VH
VL: B1 VL with T2I, V3Q, L4M, A43Q
notes: humanized
